From patent US20210169880A1

Experiments:
[1] = biological target: human ROR1 (human) (UniProt Q01973); experiment: cell-based or functional assay
[2] = biological target: human SLAMF7 (human) (UniProt Q9NQ25); experiment: cell-based or functional assay

B1: ROR1 CAR with 4-1BB costimulatory domain (protein)
chain: QVQLVESGGALVQPGGSLTLSCKASGFDFSAYYMSWVRQAPGKGLEWIATIYPSSGKTYYAASVQGRFTISADNAKNTVYLQMNSLTAADTATYFCARDSYADDGALFNIWGQGTLVTVSSGGGGSGGGGSGGGGSQLVLTQSPSVSAALGSSAKITCTLSSAHKTDTIDWYQQLAGQAPRYLMYVQSDGSYEKRSGVPDRFSGSSSGADRYLIISSVQADDEADYYCGADYIGGYVFGGGTQLTVGESKYGPPCPPCPMFWVLVVVGGVLACYSLLVTVAFIIFWVKRGRKKLLYIFKQPFMRPVQTTQEEDGCSCRFPEEEEGGCELRVKFSRSADAPAYQQGQNQLYNELNLGRREEYDVLDKRRGRDPEMGGKPRRKNPQEGLYNELQKDKMAEAYSEIGMKGERRRGKGHDGLYQGLSTATKDTYDALHMQALPPR
Binder B1 has an IFN-γ in supernatant (ELISA), CD8+ CAR-T cells co-cultured with RCH-ACV, untreated [1] of 1310 pg/mL, a proliferation index (CFSE, 72 h), CD8+ CAR-T cells co-cultured with RCH-ACV, untreated (proliferation index) [1] of 2.84 and a specific lysis of K562/ROR1 target cells by CD8+ CAR-T cells, no dasatinib, t=10 h [1] of 94%. It also gave a specific lysis of K562/ROR1 target cells by CD8+ CAR-T cells, no dasatinib, up to t=5 h [1] of 73% and a specific lysis of ROR1+ RCH-ACV target cells by CD8+ CAR-T cells, untreated, t=8 h [1] greater than 90%.

B2: SLAMF7 CAR with CD28 costimulatory domain (protein)
chain: EVQLVESGGGLVQPGGSLRLSCAASGFDFSRYWMSWVRQAPGKGLEWIGEINPDSSTINYAPSLKDKFIISRDNAKNSLYLQMNSLRAEDTAVYYCARPDGNYWYFDVWGQGTLVTVSSGGGGSGGGGSGGGGSDIQMTQSPSSLSASVGDRVTITCKASQDVGIAVAWYQQKPGKVPKLLIYWASTRHTGVPDRFSGSGSGTDFTLTISSLQPEDVATYYCQQYSSYPYTFGQGTKVEIKESKYGPPCPPCPAPPVAGPSVFLFPPKPKDTLMISRTPEVTCVVVDVSQEDPEVQFNWYVDGVEVHNAKTKPREEQFQSTYRVVSVLTVLHQDWLNGKEYKCKVSNKGLPSSIEKTISKAKGQPREPQVYTLPPSQEEMTKNQVSLTCLVKGFYPSDIAVEWESNGQPENNYKTTPPVLDSDGSFFLYSRLTVDKSRWQEGNVFSCSVMHEALHNHYTQKSLSLSLGKMFWVLVVVGGVLACYSLLVTVAFIIFWVRSKRSRGGHSDYMNMTPRRPGPTRKHYQPYAPPRDFAAYRSRVKFSRSADAPAYQQGQNQLYNELNLGRREEYDVLDKRRGRDPEMGGKPRRKNPQEGLYNELQKDKMAEAYSEIGMKGERRRGKGHDGLYQGLSTATKDTYDALHMQALPPR
Work on B2 yielded a specific lysis of K562/SLAMF7 target cells by CD8+ CAR-T cells, no dasatinib, t=6 h [2] of 67% and a specific lysis of K562/SLAMF7 target cells by CD8+ CAR-T cells, no dasatinib, t=12 h [2] of 85%.

B3: SLAMF7 CAR with 4-1BB costimulatory domain (protein)
chain: EVQLVESGGGLVQPGGSLRLSCAASGFDFSRYWMSWVRQAPGKGLEWIGEINPDSSTINYAPSLKDKFIISRDNAKNSLYLQMNSLRAEDTAVYYCARPDGNYWYFDVWGQGTLVTVSSGGGGSGGGGSGGGGSDIQMTQSPSSLSASVGDRVTITCKASQDVGIAVAWYQQKPGKVPKLLIYWASTRHTGVPDRFSGSGSGTDFTLTISSLQPEDVATYYCQQYSSYPYTFGQGTKVEIKESKYGPPCPPCPAPPVAGPSVFLFPPKPKDTLMISRTPEVTCVVVDVSQEDPEVQFNWYVDGVEVHNAKTKPREEQFQSTYRVVSVLTVLHQDWLNGKEYKCKVSNKGLPSSIEKTISKAKGQPREPQVYTLPPSQEEMTKNQVSLTCLVKGFYPSDIAVEWESNGQPENNYKTTPPVLDSDGSFFLYSRLTVDKSRWQEGNVFSCSVMHEALHNHYTQKSLSLSLGKMFWVLVVVGGVLACYSLLVTVAFIIFWVKRGRKKLLYIFKQPFMRPVQTTQEEDGCSCRFPEEEEGGCELRVKFSRSADAPAYQQGQNQLYNELNLGRREEYDVLDKRRGRDPEMGGKPRRKNPQEGLYNELQKDKMAEAYSEIGMKGERRRGKGHDGLYQGLSTATKDTYDALHMQALPPR
Work on B3 yielded a specific lysis of K562/SLAMF7 target cells by CD8+ CAR-T cells, no dasatinib, t=6 h [2] of 63% and a specific lysis of K562/SLAMF7 target cells by CD8+ CAR-T cells, no dasatinib, t=12 h [2] of 83%.
